Laboratory results reported in the nanobody polyreactivity screen of Harvey et al. (2022).

Test: yeast display, Sf9 membrane polyspecificity reagent, FACS + sequencing; frameworks hold sequencing errors
Summary of the method: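 Using colony PCR, genes from sorted yeast display clones were amplified, then sequenced on MiSeq at 2 × 250 and filtered by CDR length. The clones had been stained with 10% biotinylated, detergent-solubilized Sf9 membrane reagent for 1 hour at 4 °C and sorted by FACS into low and high (top ~1%) gates on anti-HA and streptavidin fluorescence. Polyreactivity labels come from the gate of origin.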

Sequence | polyreactivity (PSR sort gate)
QVQLVESGGGLVQAGGSLRLSCAASGRTFRYYVMGWYRQAPGKERELVATITSNGDSTYYADSVKGRFTISRDNAKNTVYLQMNSLKPEDTAVYYCAVRWRDYRGSYRGFEYWGQGTQVTVSS | high polyreactivity
QVQLVESGGGLVQAGGSLRLSCAASGRTFFLNTMGWYRQAPGKERELGAAINWSDGGTYYADSVKGRFTISRDIAKNTVYLQMNSLKPEDTAVYYCAADVYWYYGAPELWYRFDYWGQGTQVTVSS | low polyreactivity
QVQLVESGGGLVQAGGSLRLSCAASGSIFPYNAMGWYRQAPGKERELVAAISKRGGSTYYADSVKGRFTISRDNAKNTVYFQMNSLKPEDTAVYYCAARYPPYRSWYSYDYWGQGTQVTVSS | low polyreactivity
QVQLVESGGGLVQAGGSLRLRCAASGLTYSNAMGWYRQAPGKERELVAAISWRGGRTYYADSVKGRFTISRDNAKNTVYLQMNSLKPEDTAVYYCAKYAHGHKWYGYWGQGTQVTVSS | low polyreactivity
QVQLVESGGGLVQAGGSLRLSCAASGGIFTSNAMGWYRQAPGKERELVAAITKNGGRTYYADSVKGRFTISRDNAKNTVYLQMNSLKPEDTAVYYCNAAVTFRCYDYWGQGTQVTVSS | high polyreactivity
QVQLVESGGGLVQAGGSLRISCAASGSTFRLYAMGWYRQAPGKERELVAAISSNGVRTYYADSVKGRFTISRDNAKNTVYLQMNSLKPEDTAVYYCAARVYPAYPRGYDYWGQGTQVTVSS | high polyreactivity
QVQLVESGGGLDQAGGSLRLSCAGSGSIFTSYAMGWDIQAPGKERELVAAISQSGGDTYYADSVKGRFTISRDNAKNTVYLQMNSLKPEDTAVYYCAASVWYYPMDYWGQGTQVTVSS | low polyreactivity
QVQLVESGGGLVQAGGSLRLSCGASGFTFPYYAMGWYIQAPGKERELVAAITSSGGSTYYADSVKGRFTISRDNAKNTVYLQMNSLNPEDTAVYYCAVDAYYYKWYDYWGQGTQVTVSS | high polyreactivity
QVQLVESGGGLVQAGGSLRLSCAASGSTYATNAMRWYRQAPGKERELVATISWSGGSTYYADSVKGRFTISRDNAKNTVYLQMNSLKPEDTAVYYCAADWSNLGAYDYWGQGTQVTVSS | low polyreactivity
QVQLVESGGGLVQAGGSLRLSCAASGRTFFWYAMGWYRQAPGKEREFVAAITWRTGSTYYADSVKGRFTISRDNAKNTVYLQMNSLKPEDTAVYYCAAEYPWSYATYYYWGQGTQVTVSS | high polyreactivity
QVQLVESGGGLVQAGGSLRLICAASGSIFRFYAMGWYRQAPGTERELVAAISKTGGRTYYADSVKGRFTISRDNAKNTFYLQMNSLKPEDTAVYYCAASIREGFYWGQGTQVTVSS | high polyreactivity
QVQLVESGGGLVQAGGSLRLSCADSARTFNWNAMGWYRQAHGKERELVATISRRGGSTYYADSVKGRFTISRDNAKNTVYLQMNSLKPEDTAVYDCNTAGRYGYDYWGQGTQVTVSS | high polyreactivity
QVQLVESGGGLVQAGGSLRLSCAASGGIFARNVMGWYRQAPGKERELVAAISGSGGSTYYADSVKGRFTISRDNAKNTVYLQMNSLKPEDTAVYYCAARTPGVSVYKDGYWGQGTQVTVSS | low polyreactivity
QVQLVESGGGLVQAGGSLRLSCAASGSIFESYAMGWYRQAPGKERELVAAITLSGTSTYYADSVKGRFTISRDNAKNTVYLQMNSLKPEDTAVYYCNAKPIPVRGSYDYWGQGTQVTVSS | low polyreactivity
QVQLVESGGGLVQAGGSLRLSCAASGRTFIRNAMGWYRQAPGKERELVASISRRGGSTYYADSVKGRYTISRDNAKNTVYLQMNSLKPEDTAVYYCAKAYAFVTSGLGYDYWGQGTQVTVSS | high polyreactivity
QVQLVESGGGLVQAGGSLRLSCAASGSIFWRYAMGWYRQAPGKERELVATITSRGGSTYYADSVKGRFTISRDNAKNTVYLQMNSLKQEDTAVYYCAAGWLPKYGYWGQGTQVTVSS | low polyreactivity

Sequence | polyreactivity (PSR sort gate)
QVQVVESGGGLVQAGGSLRLSCAASGRTFRKNAMGWYRQAPGKERELVAAISSGGGSTYYADSVKGRFTISRDNAKNSDYLQINSLKPEDTAVYYCAVLVWYYDGYYSSYDYWGQGTQVTVSS | high polyreactivity
QVQLVESGGGLVQAGGSLRLSCAASGFTLWYNGMGWYRQAPGKERELVATISSRGGGSTYYADSVKGRFTISRDNAKNTVYLQMNSLKPEETAVYYCAADAYYLVPTEGDYWGQGTQVTVSS | low polyreactivity
QVQIVESGGGLVQAGGSLRLSCAASGGILYYYVMGWYRQAPGKERELVADISRGGSTNYADSVKGRFTISRDNAKNTVYFQMNSLKPEDTAVYYCADQDGLKQYTFDYWGQGTQVSVSS | low polyreactivity
QVQLVESGGGLVQAGGSLRLSCTASGGIFRYYAMGWYRPAPGKERELVAGISRSGGSTHYADSVKGRFTISRDNAKNTVYLQMNSLKREDTAVYYCAADTYFTKYDYWGQGTQVTVSS | high polyreactivity
QVQLVESGGGLVQAGGSLRLSCAASGRNFSGNTMGWYRQAPGKERELVAAITGRGGSTYYADSVKGRFTISRDNAKNTVYLQMNSLKPEDNAVYYCAALRYTFAGRFDYWGQGTQVTVSS | high polyreactivity
QVQLVESGGGLVQAGGSLRLSCAASGIIFLWYAMGWYRQAPGKERELVAAISRTGSSTYYADSVKGRFTISRDNAKNTVYLQMNSLKPEDTAVYYCAAAYYSKRSWRFDYWGQGTQVTVSS | high polyreactivity
QVQLVESGGGLVQAGGSLRLSCAASGRTFYIYAMGGNRQATGKERELVAAITWRGGRTYYADSVKGRFTISRDNAKNTFYLQMNSLKPEDTAVYYCGARTGQGPMYKHWGQGTQVTLSS | high polyreactivity
QVQLVESGGGLVQAGGSLRLSCAASGRIFRRNVMGWYRQAPGKERELLAAIRGTGSTTYADSVKGRFTISRDNAKNTVYLQMNSLKPEDTAVYYCNAYKGQTGGGGRYGYWGQGTQVTVSS | high polyreactivity
QVQLVESGGGLVQAGGSLRLSCAASGSIFYRYAMGWYRQAPGKERELVAAITSTGSRTFYADSVKVRFTISRDNAKNTVYLQMNSLKPEDTAVYYCAADARYNGYHGVDYWGQGTLVTVSS | high polyreactivity
QVQLVESGGGLVQAGGSLRISCAASGITFVYYDMAWYRQAPGKDSELVAAISGGGSTNYADSVKGRFTISRDNAKNTVYLQRKSLKPEDTAVYYCNAELYYGDEGDSWGQGTLVTVSS | low polyreactivity
QVQLVESGGGLVQAGGSLRLSSAASGRTFRPNAMGGYRQAPGKERELVAGITRGGSTKYADSVKGRFTISRDNSKNTVYLQMNSLKPEDTAVYYCAVERGSYSYDRPFYYCGQGTQVTVSS | high polyreactivity
QVQLVESGGGLVQAGGSLRISCAASGSIFYGNAMGWYRQAPGKERELVAAISKRGGSTYYADSVKGRFTISRDNAKNTVYLQMNSLKPEDTAVYYCAKATAGHTEYYYWGQGTQVTVSS | high polyreactivity
QVQLVESGGGLVQAGGSLRLSCAASGRTFRIYATGWYRQAPGKERELVAAITRGGSTYYADSVKGRFTISRDNAKNTVYLQMNSLKPEDTAVYYCNAAPYYWGYDYWGQGTQVTVSS | high polyreactivity
QVQLVESGGGLVQAGGSLRLSCAASGSTLYWYAMGWYRQAPGKERELVARITVSGGSTSYADSVKGRFTISRYNAKNTVYLQMNSLKPEDTAVYYCAARRYWTGYYYWGQGTQVTVSS | high polyreactivity
QVQLVESGGGLVQAGGSLRLSCAASGFTFVYYAMGWYRQEPGKERELVAAISRSGGSTYYADSVKGRFTISRDNAKNTVYLQMNSLKPEDTEVYYCAAVTYANYYYDAYYYWGQGTQVTVSS | high polyreactivity
QVQLVESGRGLVQAGVSLRLSCAASGFIFKGYAMGWYRQATGKERELVAAITWSGRTYYADSVKGRFTISRDNAKNTVYLKMNSLKPEDTAVFYCAVDRGRGSTYKYDYWGQGTQVNVSS | low polyreactivity
